From PMC5852159, “Hydrogen peroxide positively regulates brassinosteroid signaling through oxidation of the BRASSINAZOLE-RESISTANT1 transcription factor” (Nature Communications, 2018)

Molecular target: T1, MBP-BZR1 (maltose-binding protein-BRASSINAZOLE-RESISTANT1 fusion) (Arabidopsis thaliana, UniProt Q8S307 1-336)
T1 construct: BRASSINAZOLE-RESISTANT1 (BZR1), Arabidopsis thaliana; full length cDNA without stop codon, recombined into pMAL2CGW (N-MBP); In part of the pull-downs 1 mM H2O2 stood in the buffer, which oxidises BZR1 (mainly at Cys-63); also called recombinant BZR1; source: E. coli, purified (amylose resin); not shown: MBP, N-terminal, kept
T1 sequence (looked up): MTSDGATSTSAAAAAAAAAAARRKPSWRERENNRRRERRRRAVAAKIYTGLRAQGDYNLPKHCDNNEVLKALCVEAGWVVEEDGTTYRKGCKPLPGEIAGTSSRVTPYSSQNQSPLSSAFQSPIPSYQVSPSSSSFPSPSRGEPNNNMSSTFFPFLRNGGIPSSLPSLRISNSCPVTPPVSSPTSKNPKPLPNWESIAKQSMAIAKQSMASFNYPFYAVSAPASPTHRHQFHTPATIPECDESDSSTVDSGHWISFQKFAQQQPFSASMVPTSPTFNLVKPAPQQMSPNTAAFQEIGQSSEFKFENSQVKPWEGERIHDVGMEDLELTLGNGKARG
Assay: pull-down; glutathione beads with 1 µg GST fusion incubated with 1 µg MBP or MBP fusion; 20 mM Tris-HCl pH 7.5, 100 mM NaCl, 1 mM EDTA, with or without 1 mM H2O2, 4 °C, 1 h; washed with 300 mM NaCl, 0.1% Nonidet P-40; blots with anti-MBP and anti-GST
Conditions: both partners purified

binding result: binds
B1: GST-TRXh5 (enzyme, Arabidopsis thaliana, UniProt Q39241 1-118, looked up)
chain: MAGEGEVIACHTLEVWNEKVKDANESKKLIVIDFTASWCPPCRFIAPVFAEMAKKFTNVVFFKIDVDELQAVAQEFKVEAMPTFVFMKEGNIIDRVVGAAKDEINEKLMKHGGLVASA
notes: thioredoxin h5 (TRXh5), Arabidopsis thaliana; full length cDNA without stop codon, recombined into pDEST15 (N-GST); also called thioredoxin TRXh5; source: bacteria, purified (glutathione beads); not shown: GST, N-terminal, kept
